Reference: a protein production outcome set (Wang et al. 2014)

Experiment: label from the status in PepcDB records
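Note: failed if final PepcDB status was selected cloned or expressed and not failed if soluble or beyond.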

Sequence	protein production
MNGSLQRSHMEIVPDTSVVIDGRVSDQVKADADPDTDVDGMGFAGATVVVPEAVVGELEAQANDGRETGWEGLEELQTLVDLAEEGTIDVEYVGRRPDAIEKREAGEGQIDALIRDIAGDRDATLVTSDDVQAEVARAKGLAVEFVDPVKRTVDRLQI	failed
MSLTDTKVKNAKPSEKVVKLTDGFGLYLLVHTNGSKYWQLGYRFEGKQKVFSIGVYPAVSLANARQRRDEAKKLLAAGVDPSAKKRADNKSVQEKRNNTRAFKTVAKSWFATKTTWSEDYQRSVWTRLETYLFPDIGNKDIAELDTGDLLVPIKKIEKLGYLEIAMRVKQYATAIMRYAVQQKMIRFNPAYDLEGAVQKPQTEHRPAIELEEIPTLLERIEGYKGRSRLTQLAIKLNLLIFIRSSELRFARWSEIDFKSGLWVIPEQREAIKGIKHSDRGAKMRRKHYVPLCEQALVILGELKDLTYDVNGDDGFILTGCYDAMKPMSENTINKALRKMGYDTKTDLCGHGFRTLACSALIESGIWPEDVVELQMSHMEKNNVRAAYTHKAKHLEQRRLMLQWWADFLDANGSGMVRPFEFAQGATQY	failed
MSVYLVALIGILILGLYILDLRKHKITTREIIMIGLSVAISYVLYMIPLVRYPQGGGITFFSMLPIMLLSLVYGRTVGVTGGLIFGLLKILNGAFIVHPVQFLLDYILSNMALGLAGSFGIDKKYKIFLGSLMAGSISTFVSIVSGVIFFGQYAPPGMNLWIYSIIYNTSSAGVESLLTAIVITIMPIKMLAKRMKPINNI	failed
MKIVIAPDSYKESLSALEVATAIEQGFREIWPDADYLKLPLADGGEGTVEAMVEATAGRIVHVEVTGPLGHRVNAFYGLSGDARSAFIEMAAASGLEQVPPAQRDPLKTTSWGTGELIRHALDAGVEHIIIGIGGSATNDGGAGMVQALGARLRDAQGNDIAQGGIGLETLASIDISGLDKRLSACHIEVACDVTNPLTGKEGASAVFGPQKGATPEMIERLDTALTRYAHLIARDLHVDVLDLAGGGAAGGMGAALYAFCGAQLRRGIEIVTDALHLEACLADADLVITGEGRIDSQTIHGKVPIGVANIAKRYNKPVIGIAGSLTADVSVVHEHGLDAVFSVIYTICTLEDALKNASENVRMTARNVAATLKAGQQLR	not failed
AIKHVKGNGKRTLYIFSDPDCPYCQRLEKELTAVDNVTIYLFLFPLTTLHPNAETIATQIWCSKNQYQAWQDYLLNHKAPTASQKCSTPIQKNLALGQKLNINGTPTMYLKNGERIAGAMQAGQLNTLLDQAQ	failed
MDIEDLRTFVAVADAGGVSAAARRLGISKSIVSRRLFRIEAELGVQLLARTTRGAALTEAGITFRDHAARASAEIDTARETILPAGELHGRLRIAMPLTFGPTHFAPVLAEMARQHPQLHIHTSYSDRFVDLIAEGFDCAIRGAYLQDSNLIAKRVGPIHGKLVASPAYIKAHGSPEMVEQLVNHQALMQGTEAWQFMDGDRIVTVQPQGKFKADSATALAAAAAAGLGIAWLPDCITHAYLASGALVPIMTRYPVPPGAVYVVRPPSQHPARKVRVLTEMLTEYFKRTPELWGVDG	failed
MEELFCIGCGARIQTENKDAAGYTPRAALEKGLETGELYCQRCFRLRHYNEITDVHITDDEFLKLLHEVGDSDALVVNVIDIFDFNGSIIPGLSRFVAGNDVLLVGNKKDILPKSVKDGKVTQWLTERAHEEGLRPVDVILTSAQNHHAIKDLIDTIEKYRHGQDVYVVGVTNVGKSTLINAIIREITGSRDVITTSRFPGTTLDKIEIPLDDGSYIFDTPGIIHRHQMAHYLTAKNLKYVSPKKEIKPKTYQLNSEQTLFLAGLARFDFISGQKQGFTAYFDNNLNLHRTKLVGADEFYTKHVGKLLTPPTGKEVSDFPKLVRHEFTIKDKMDIVYSGLGWIRVKSEAENPVVVAAWAPEGVAVVLRKALI	failed
LTVHYDLQLYKINYKTQSPDGNLTIASGLVAMPIHPVGQVGIISYQHGTRFERNDVPSRNNEKNYIYLAAYGNSAGYMTVMPDYLGLGDNELTLHPYVQAETLASSSIDMLFAAKELANRLHYPISDKLYLAGYSEGGFSTIVMFEMLAKEYPDLPVSAVAPGSAPYGWEETMHFVMLEPGPRATAYLAYFFYSLQTYKSYWSGFDEIFAPPYNTLIPELMDGYHAVDEILQALPQDPLLIFQPKFSNGIISKTDRNTEILKINFNHYDFKPTAPLLLVGTKGDRDVPYAGAEMAYHSFRKYSDFVWIKSVSDALDHVQAHPFVLKEQVDFFKQFERQE	not failed
